Experimental data taken from PMC8401098, “The Uncommon Active Site of D-Amino Acid Transaminase from Haliscomenobacter hydrossis: Biochemical and Structural Insights into the New Enzyme” (Molecules, 2021).
Changes are numbered by the printed parent chain. Names and notes keep the numbering of the source.

Tests used:
[1] = target: T1, Halhy (D-amino acid transaminase from Haliscomenobacter hydrossis) (Haliscomenobacter hydrossis, UniProt F4KWH0); test: X-ray crystal structure, […] Å; type: binding; conditions: covalent; Schiff base with K143; holo form, pH 4.8
T1 construct: gene Halhy_2446; N-terminal His6-TEV tag cut off with TEV protease; E. coli Rosetta(DE3) pLysS; codon-optimised synthetic gene; homodimer (about 62 kDa by gel filtration)

purified protein [2] = substrate: O=C(O)CCC(=O)C(=O)O; test: purified protein; type: biochemical, Haliscomenobacter hydrossis; conditions: D-alanine 40 mM, 50 mM K-phosphate pH 8, 30 µM PLP
purified protein [3] = substrate: N[C@H](CCC(=O)O)C(=O)O; test: purified protein; type: biochemical, Haliscomenobacter hydrossis; conditions: pyruvate 2.5 mM, 50 mM K-phosphate pH 8, 30 µM PLP, 40 °C
purified protein [4] = substrate: CC(=O)C(=O)O; test: purified protein; type: biochemical, Haliscomenobacter hydrossis; conditions: D-glutamate 4 mM, 50 mM K-phosphate pH 8, 30 µM PLP, 40 °C
[5] = substrate: CC(C)C[C@@H](N)C(=O)O; test: steady-state kinetics of overall transamination (HPLC of 4-methyl-2-oxovalerate); type: biochemical, Haliscomenobacter hydrossis; conditions: α-ketoglutarate 5 mM, 50 mM K-phosphate pH 8, 30 µM PLP, 40 °C
Excerpt: steady-state kinetics of overall transamination (HPLC of 4-methyl-2-oxovalerate) on Halhy (D-amino acid transaminase from Haliscomenobacter hydrossis)

purified protein [6] = substrate: C[C@@H](N)C(=O)O; test: purified protein; conditions: α-ketoglutarate 5 mM, 50 mM K-phosphate pH 8, 30 µM PLP, 40 °C
[7] = substrate: CC(C)CC(=O)C(=O)O; test: steady-state kinetics of overall transamination; type: biochemical, Haliscomenobacter hydrossis; conditions: D-alanine 40 mM, 50 mM K-phosphate pH 8, 30 µM PLP, 40 °C
Excerpt: steady-state kinetics of overall transamination on Halhy (D-amino acid transaminase from Haliscomenobacter hydrossis)

T1 sequence (F4KWH0 entry or part of it): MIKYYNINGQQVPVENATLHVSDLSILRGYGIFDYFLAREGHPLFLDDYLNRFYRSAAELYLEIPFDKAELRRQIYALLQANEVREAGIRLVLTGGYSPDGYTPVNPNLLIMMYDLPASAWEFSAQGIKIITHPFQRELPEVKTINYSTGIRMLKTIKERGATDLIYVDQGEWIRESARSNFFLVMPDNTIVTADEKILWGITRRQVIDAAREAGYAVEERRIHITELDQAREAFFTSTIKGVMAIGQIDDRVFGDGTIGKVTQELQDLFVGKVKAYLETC

With `Cc1ncc(COP(=O)(O)O)c(C=O)c1O` [pyridoxal-5'-phosphate] the “X-ray crystal structure, 2.0 Å” value [1] was “structure of WT Halhy in the holo form with a covalently bound PLP was determined”.

B1: Halhy (D-amino acid transaminase from Haliscomenobacter hydrossis) (Haliscomenobacter hydrossis DSM 1100; R179G) (protein)
chain: MIKYYNINGQQVPVENATLHVSDLSILRGYGIFDYFLAREGHPLFLDDYLNRFYRSAAELYLEIPFDKAELRRQIYALLQANEVREAGIRLVLTGGYSPDGYTPVNPNLLIMMYDLPASAWEFSAQGIKIITHPFQRELPEVKTINYSTGIRMLKTIKERGATDLIYVDQGEWIRESAGSNFFLVMPDNTIVTADEKILWGITRRQVIDAAREAGYAVEERRIHITELDQAREAFFTSTIKGVMAIGQIDDRVFGDGTIGKVTQELQDLFVGKVKAYLETC
notes: N-terminal His6-TEV tag cut off with TEV protease; E. coli Rosetta(DE3) pLysS; codon-optimised synthetic gene; homodimer (about 62 kDa by gel filtration)
Work on B1 yielded a Km (purified protein [2]; 25 °C) of 8.1 ± 0.8 mM, a kcat (purified protein [2]; 25 °C) of 8.6 ± 0.6 s⁻¹ and a kcat/Km (purified protein [2]; 25 °C) of 1100 M⁻¹ s⁻¹.

B2: Halhy (D-amino acid transaminase from Haliscomenobacter hydrossis) (Haliscomenobacter hydrossis DSM 1100) (protein)
chain: B1 chain with G179R
notes: as for B1
B2 was tested, and the Km (purified protein [3]) was 10.3 ± 0.7 mM, the kcat (purified protein [3]) was 215 ± 6 s⁻¹ and the kcat/Km (purified protein [3]) was 21000 ± 2000 M⁻¹ s⁻¹. It also gave a Km (purified protein [2]; 40 °C) of 2.3 ± 0.2 mM, a kcat (purified protein [2]; 40 °C) of 146 ± 4 s⁻¹ and a kcat/Km (purified protein [2]; 40 °C) of 63000 ± 7000 M⁻¹ s⁻¹. The Km (purified protein [4]) was 2.1 ± 0.1 mM, the kcat (purified protein [4]) was 215 ± 6 s⁻¹ and the kcat/Km (purified protein [4]) was 103000 ± 8000 M⁻¹ s⁻¹. For the same molecule, the Km [5] was 83 ± 8 mM, the kcat [5] was 10.5 ± 0.4 s⁻¹ and the kcat/Km [5] was 130 M⁻¹ s⁻¹. It also gave a Km (purified protein [6]) of 23 ± 1 mM, a kcat (purified protein [6]) of 146 ± 4 s⁻¹ and a kcat/Km (purified protein [6]) of 6300 M⁻¹ s⁻¹. It also gave a Km [7] of 70 ± 6 mM, a kcat [7] of 4.2 ± 0.1 s⁻¹ and a kcat/Km [7] of 60 M⁻¹ s⁻¹.
